Test results reported in patent US20140179594A1, “STREPTOCOCCUS BACTERIOPHAGE LYSINS FOR TREATMENT OF GRAM POSITIVE BACTERIA IN COMPANION ANIMALS AND LIVESTOCK” (priority 2011, published 2014).
Read-outs that look alike come from different tables or passages of the source.

Tests used:
E. faecalis V583 = experiment: ΔPlySs1 OD600 lysis, 1 hr; format: cell-based
B. anthracis ΔSterne = format: cell-based
S. suis strain 7711 = experiment: ΔPlySs1 growth inhibition in BHI broth; format: cell-based; settings: strain 7711 in BHI broth, overnight
Experimental: The optical density of each sample was measured continuously overnight in 96-well plate format. Overall, bacterial growth was delayed in a dose-dependent manner. However, for enzyme-concentrations that were sufficient to induce lysis in buffered solutions (130 and 50 μg/ml), the effect was quite minimal here. […] For all of the treated samples, one will note that the final optical densities are actually higher than that of the untreated sample. This is an artifact of the accumulation of aggregated bacterial debris that occurred in the presence of lytic enzyme.
(§1) Given the above experiments, the following optimal buffering conditions were employed for all further in vitro experiments with ΔPlySs1: 20 mM phosphate buffer, pH=7.8, 2 mM EDTA. A range of lysin concentrations, from 6.5-130 μg/ml, were introduced to live S. suis cells in this buffer. Three strains were considered particularly relevant: 7711, the serotype 7 strain that encodes PlySs1; 5735, the serotype 2 reference strain; and 7997, a highly virulent serotype 9 strain. In terms of bacterial viability, only the highest PlySs1-concentration (130 μg/ml) led to a >90% decrease in CFUs for 7711, S735, and 7997 after 1 hr treatment (TABLE 2). The lysin was also tested against actively-dividing cells in broth culture (strain 7711) (FIG. 20).

S. aureus RN4220 = experiment: ΔPlySs1 OD600 lysis, 1 hr; format: cell-based
S. sobrinus 6715 = experiment: ΔPlySs1 OD600 lysis, 1 hr; format: cell-based
S. sanguinis 10556 = experiment: ΔPlySs1 OD600 lysis, 1 hr; format: cell-based
S. dysgalactiae GGS = experiment: ΔPlySs1 OD600 lysis, 1 hr; format: cell-based
S. oralis 35037 = experiment: ΔPlySs1 OD600 lysis, 1 hr; format: cell-based
S. agalactiae type II = experiment: ΔPlySs1 OD600 lysis, 1 hr; format: cell-based
[1] = tested on: Group E streptococci K131; experiment: ΔPlySs1 OD600 lysis, 1 hr; format: cell-based
S. equi 9528 = experiment: ΔPlySs1 OD600 lysis, 1 hr; format: cell-based
[2] = tested on: purified S. suis cell walls (from type strain 5735); experiment: PlySs1 bond specificity, double digestion with HEWL, mass spectrum; format: biochemical; settings: double digestion with HEWL and PlySs1
Text: To determine the bond specificity of the enzymatic domain of PlySs1, purified S. suis cell walls (from type strain 5735) were subject to double digestion with HEWL (a muramidase) and PlySs1. The two predominant peaks were m/z=718 and m/z=734. This corresponds exactly to the predicted masses of the [Na-M]+ and [K-M]+ adducts of GlcNAc-MurNAc-LAla-D-Gln. […] When a mass spectrum was taken of undigested cell wall, the above two peaks were absent.

B. cereus 14579 = experiment: ΔPlySs1 OD600 lysis, 1 hr; format: cell-based
S. suis 5735 (ST2) = experiment: ΔPlySs1 CFU analysis; format: cell-based; settings: 1 hr
Experimental: as §1
(§2) For two ΔPlySs1 concentrations (130 and 13 μg/ml), CFU analysis was conducted on S. suis strains 5735, 7997, and 7711 after 1 hr treatment (optimal buffering conditions). In each experiment, the percentage-decrease in CFUs was determined for the treated sample versus the untreated. The range of the values observed (across 3 independent experiments) is reported here for each strain. The serotype of each strain is indicated in parentheses.

S. suis 7997 (ST9) = experiment: ΔPlySs1 CFU analysis; format: cell-based; settings: 1 hr
Experimental: as §1, §2

S. suis 7711 (ST7) = experiment: ΔPlySs1 CFU analysis; format: cell-based; settings: 1 hr
Experimental: as §1, §2

B1: ΔPlySs1: truncated PlySs1 lysin with N-terminal enzymatic and central binding domains, N-terminal 254 amino acids, SEQ ID NO:2 (protein, listed as Streptococcus suis)
chain: MTINLETSIRWMSDRVGKVSYSMDYRNGPNSYDCSSAVYYALMAGGAISAGWAVNTEYMHDWLIRNGYVLVAENKPFNAQRHDVCILGKRGYSSGAGGHVVIFVDNVNVIHCNYARNGISIDNYNQVHRGMYYYLYRPANQPSISNKSLDQLVKETLAGVHGNGDTRKASLGSQYEAVMAVINGKASASEKSDEELAREVLAGKHGAGEDRKRSLGPRYEPVQAKVNELLKAKEKPSETAKNEPQTVQFKEDGDL
E. faecalis V583; 6.5 μg/ml
  1-hour treated/untreated OD600-ratio: 0.98
E. faecalis V583; 13 μg/ml
  1-hour treated/untreated OD600-ratio: 0.93
E. faecalis V583; 30 μg/ml
  1-hour treated/untreated OD600-ratio: 0.84
E. faecalis V583; 65 μg/ml
  1-hour treated/untreated OD600-ratio: 0.71
E. faecalis V583; 130 μg/ml
  1-hour treated/untreated OD600-ratio: 0.52
B. anthracis ΔSterne; 6.5 μg/ml
  1-hour treated/untreated OD600-ratio: 1.02
B. anthracis ΔSterne; 30 μg/ml
  1-hour treated/untreated OD600-ratio: 1.02
B. anthracis ΔSterne; 65 μg/ml
  1-hour treated/untreated OD600-ratio: 0.98
B. anthracis ΔSterne; 130 μg/ml
  1-hour treated/untreated OD600-ratio: 0.90
S. suis strain 7711
  growth inhibition of actively-dividing cells: could not inhibit S. suis growth outright
S. aureus RN4220; 6.5 μg/ml
  1-hour treated/untreated OD600-ratio: 0.89
S. aureus RN4220; 13 μg/ml
  1-hour treated/untreated OD600-ratio: 0.78
S. aureus RN4220; 30 μg/ml
  1-hour treated/untreated OD600-ratio: 0.55
S. aureus RN4220; 65 μg/ml
  1-hour treated/untreated OD600-ratio: 0.31
S. aureus RN4220; 130 μg/ml
  1-hour treated/untreated OD600-ratio: 0.10
S. sobrinus 6715; 6.5 μg/ml
  1-hour treated/untreated OD600-ratio: 0.64
S. sobrinus 6715; 13 μg/ml
  1-hour treated/untreated OD600-ratio: 0.48
S. sobrinus 6715; 30 μg/ml
  1-hour treated/untreated OD600-ratio: 0.39
S. sobrinus 6715; 65 μg/ml
  1-hour treated/untreated OD600-ratio: 0.32
S. sobrinus 6715; 130 μg/ml
  1-hour treated/untreated OD600-ratio: 0.23
S. sanguinis 10556; 6.5 μg/ml
  1-hour treated/untreated OD600-ratio: 0.48
S. sanguinis 10556; 13 μg/ml
  1-hour treated/untreated OD600-ratio: 0.44
S. sanguinis 10556; 30 μg/ml
  1-hour treated/untreated OD600-ratio: 0.28
S. sanguinis 10556; 65 μg/ml
  1-hour treated/untreated OD600-ratio: 0.21
S. sanguinis 10556; 130 μg/ml
  1-hour treated/untreated OD600-ratio: 0.11
S. dysgalactiae GGS; 6.5 μg/ml
  1-hour treated/untreated OD600-ratio: 0.30
S. dysgalactiae GGS; 13 μg/ml
  1-hour treated/untreated OD600-ratio: 0.27
S. dysgalactiae GGS; 30 μg/ml
  1-hour treated/untreated OD600-ratio: 0.15
S. dysgalactiae GGS; 65 μg/ml
  1-hour treated/untreated OD600-ratio: 0.11
S. dysgalactiae GGS; 130 μg/ml
  1-hour treated/untreated OD600-ratio: 0.14
S. oralis 35037; 6.5 μg/ml
  1-hour treated/untreated OD600-ratio: 0.30
S. oralis 35037; 13 μg/ml
  1-hour treated/untreated OD600-ratio: 0.13
S. oralis 35037; 30 μg/ml
  1-hour treated/untreated OD600-ratio: 0.08
S. oralis 35037; 65 μg/ml
  1-hour treated/untreated OD600-ratio: 0.07
S. oralis 35037; 130 μg/ml
  1-hour treated/untreated OD600-ratio: 0.04
S. agalactiae type II; 6.5 μg/ml
  1-hour treated/untreated OD600-ratio: 0.61
S. agalactiae type II; 13 μg/ml
  1-hour treated/untreated OD600-ratio: 0.21
S. agalactiae type II; 30 μg/ml
  1-hour treated/untreated OD600-ratio: 0.11
S. agalactiae type II; 65 μg/ml
  1-hour treated/untreated OD600-ratio: 0.08
S. agalactiae type II; 130 μg/ml
  1-hour treated/untreated OD600-ratio: 0.04
[1]; 6.5 μg/ml
  1-hour treated/untreated OD600-ratio: 0.69
[1]; 13 μg/ml
  1-hour treated/untreated OD600-ratio: 0.50
[1]; 30 μg/ml
  1-hour treated/untreated OD600-ratio: 0.33
[1]; 65 μg/ml
  1-hour treated/untreated OD600-ratio: 0.22
[1]; 130 μg/ml
  1-hour treated/untreated OD600-ratio: 0.15
S. equi 9528; 6.5 μg/ml
  1-hour treated/untreated OD600-ratio: 0.66
S. equi 9528; 13 μg/ml
  1-hour treated/untreated OD600-ratio: 0.45
S. equi 9528; 30 μg/ml
  1-hour treated/untreated OD600-ratio: 0.25
S. equi 9528; 65 μg/ml
  1-hour treated/untreated OD600-ratio: 0.19
S. equi 9528; 130 μg/ml
  1-hour treated/untreated OD600-ratio: 0.16
[2]
  bond specificity of the enzymatic domain: gamma-endopeptidase activity
B. cereus 14579; 6.5 μg/ml
  1-hour treated/untreated OD600-ratio: 0.93
B. cereus 14579; 13 μg/ml
  1-hour treated/untreated OD600-ratio: 0.92
B. cereus 14579; 30 μg/ml
  1-hour treated/untreated OD600-ratio: 0.86
B. cereus 14579; 65 μg/ml
  1-hour treated/untreated OD600-ratio: 0.90
B. cereus 14579; 130 μg/ml
  1-hour treated/untreated OD600-ratio: 0.86
S. suis 5735 (ST2); 13 μg/ml
  percentage-decrease in CFUs, treated versus untreated (range of 3 experiments): 80.4%-92.6%
S. suis 5735 (ST2); 130 μg/ml
  percentage-decrease in CFUs, treated versus untreated (range of 3 experiments): 95.4%-99.5%
S. suis 5735 (ST2); 130 μg/ml, listed as PlySs1
  percentage-decrease in CFUs, treated versus untreated (range of 3 experiments): > 90%
S. suis 7997 (ST9); 13 μg/ml
  percentage-decrease in CFUs, treated versus untreated (range of 3 experiments): 16.8%-30.3%
S. suis 7997 (ST9); 130 μg/ml
  percentage-decrease in CFUs, treated versus untreated (range of 3 experiments): 89.9%-93.9%
S. suis 7997 (ST9); 130 μg/ml, listed as PlySs1
  percentage-decrease in CFUs, treated versus untreated (range of 3 experiments): > 90%
S. suis 7711 (ST7); 13 μg/ml
  percentage-decrease in CFUs, treated versus untreated (range of 3 experiments): 0%-35.6%
S. suis 7711 (ST7); 130 μg/ml
  percentage-decrease in CFUs, treated versus untreated (range of 3 experiments): 95.3%-99.2%
S. suis 7711 (ST7); 130 μg/ml, listed as PlySs1
  percentage-decrease in CFUs, treated versus untreated (range of 3 experiments): > 90%
